In patent publication US20110189095A1, “CRKL TARGETING PEPTIDES” (The Board of Regents, of the University of Texas System, priority 2008, published 2011):

Experiments:
CRKL [1] = biological target: T1, CRKL (Homo sapiens, UniProt P46109); test: Phage binding assay on purified recombinant protein; parameters: The open reading frame of full-length CRKL cDNA (Invitrogen) was PCR-amplified and cloned in a pET28a (Novagen) expression vector; His-tag; made in house; host or cells: E. coli BL21
Description: Phage binding assays on purified proteins were carried out as described (Giordano et al. 2001). Recombinant proteins were coated on microtiter wells as previous described (Cardo-Vila et al., 2003; Smith and Scott, 1993). Briefly, proteins were immobilized on microtiter wells overnight at 4° C. 50 μl of 1 μg/ml in PBS. Wells were washed twice with PBS, blocked with PBS containing 3% BSA for 2 hours at room temperature, and incubated with 10^9 T.U. wild-type tumor-homing phage ([…]; SEQ ID NO:1), scrambled phage ([…] (SEQ ID NO:26), […] (SEQ ID NO:27), […] (SEQ ID NO:29), […] (SEQ ID NO:30)), mutant phage ([…] (SEQ ID NO:25), […] (SEQ ID NO:28)), PSI-derived cyclic phage (CNSTFLQEGMPTSAC; SEQ ID NO:23) or fd-tet phage in 50 μl of PBS containing 1.5% BSA. After 1 hour at room temperature, wells were washed ten times with PBS and phage were recovered by bacterial infection. ELISA with polyclonal anti-CKRL confirmed the presence and concentration of the CKRL recombinant proteins on the wells. […] After 3 hours, binding of CKRL to integrins was detected by using an anti-CKRL antibody followed by an HRP-conjugated anti-rabbit IgG. […]

DU145 cells = test: Peptide internalization assay (WST-1 cell viability, annexin-V staining); format: cell-based, human; conditions: DU145 cells; measured by cell viability and annexin-V
Description: The internalization capability of the tumor-homing peptide fused through a glycinylglycine bridge to a pro-apoptotic sequence was tested as described Arap et al., 2004; Ellerby et al., 1999; Kolonin et al., 2004; Zurita et al., 2004). The conjugated tumor-homing peptide, […] (SEQ ID NO:67)-D(KLAKLAK)2 or the untargeted control peptide D(KLAKLAK)2 were synthesized and increasing equimolar peptide concentrations were added to the DU145 cells. Cell viability was assayed by the WST-1 reagent (Roche) and annexin-V staining for apoptosis (Zurita et al., 2004; Cardo-Vila et al., 2003). For tumor-homing phage localization studies, cells were incubated with 10^9 T.U. tumor-homing ([…]; SEQ ID NO:1) or a negative control (fd-tet) phage for 6 and 24 hours. Wells were washed with 20 mM glycine to remove non-specific cell surface bound phage and then fixed with 4% paraformaldehyde. The non-permeabilized cells were incubated with rabbit anti-fd bacteriophage antibody (Sigma) for 2 hours at room temperature followed by 1 hour incubation with Cy3-labeled anti-rabbit IgG antibody (Jackson ImmunoResearch). Cells were again fixed with 4% paraformaldehyde and mounted in the presence of DAPI (Vector Laboratories) and images were acquired with an Olympus fluorescence microscope.

rCRKL-SH3 (C) domain [2] = biological target: T2, rCRKL-SH3 (C) domain (Homo sapiens, UniProt P46109); test: Inhibition of rCRKL-SH3 (C) domain binding to coated tumor-homing peptide; conditions: inhibitor pre-incubated with rCRKL-SH3 (C)
T2 construct: cDNAs corresponding to each of the SH domains were PCR-amplified and cloned into the Sac I and Xho I restriction sites; His-tag; made in house; host or cells: E. coli BL21
T2 sequence (P46109 235-296 limits assumed): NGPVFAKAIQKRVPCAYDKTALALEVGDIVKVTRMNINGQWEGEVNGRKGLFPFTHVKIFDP
Description: (§1) Synthetic tumor-homing peptide ([…]; SEQ ID NO:1) or PSI-derived peptide (NSTFLQEGMPTSA; SEQ ID NO:23) were coated on microtiter plates followed by blocking, and washing. The following recombinant His-tag proteins were added to the coated plates: rCRKL, rCRKL-SH2 domain, rCRKL-SH3 (N) domain, and rCRKL-SH3 (C) domain. An unrelated control protein (α2-Heremans-Schmid glycoprotein; AHSG) served as a negative control. The mixtures were incubated, washed, and labeled with the appropriate antibodies. Secondary antibodies conjugated to horse-radish peroxidase (HRP) were added followed by adding TMB substrate (Calbiochem), and analyzed by an automated ELISA reader (Bio-Tek). To determine the inhibitory activity of the tumor-homing peptide, the PSI-derived peptide, or the phage clone displaying the corresponding tumor-homing peptide were incubated with the rCRKL-SH3 (C) domain. Unrelated cyclic peptide sequences and insertless phage (fd-tet) served as negative controls. The admixtures were incubated and added to wells coated with the tumor-homing peptide. After incubation, the wells were washed, labeled with the appropriate antibodies, and processed as above.

rCRKL-SH2 domain = biological target: T3, rCRKL-SH2 domain (Homo sapiens, UniProt P46109); test: Peptide binding assay with recombinant His-tag proteins (ELISA); conditions: peptide coated on microtiter plates
T3 construct: cDNAs corresponding to each of the SH domains were PCR-amplified and cloned into the Sac I and Xho I restriction sites; His-tag; made in house; host or cells: E. coli BL21
T3 sequence (P46109 14-102 limits assumed): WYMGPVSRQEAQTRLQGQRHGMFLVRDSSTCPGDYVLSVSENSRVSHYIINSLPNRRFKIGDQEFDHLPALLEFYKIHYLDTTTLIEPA
Description: as §1

rCRKL-SH3 (C) domain [3] = biological target: T2, rCRKL-SH3 (C) domain; test: as above
Description: as §1

rCRKL = biological target: T4, rCRKL (Homo sapiens, UniProt P46109); test: as above; conditions: peptide coated on microtiter plates
T4 construct: The open reading frame of full-length CRKL cDNA (Invitrogen) was PCR-amplified and cloned in a pET28a (Novagen) expression vector; His-tag; made in house; host or cells: E. coli BL21
T4 sequence (P46109 whole entry): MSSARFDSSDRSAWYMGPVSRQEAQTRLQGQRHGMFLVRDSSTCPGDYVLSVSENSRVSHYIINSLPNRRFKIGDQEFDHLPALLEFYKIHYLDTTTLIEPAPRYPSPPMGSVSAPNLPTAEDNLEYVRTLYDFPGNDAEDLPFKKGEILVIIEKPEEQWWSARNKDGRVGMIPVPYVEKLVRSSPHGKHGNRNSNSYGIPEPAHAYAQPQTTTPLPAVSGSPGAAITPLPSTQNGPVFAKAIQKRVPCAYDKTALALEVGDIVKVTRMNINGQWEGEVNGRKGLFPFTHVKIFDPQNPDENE
Description: as §1

rCRKL-SH3 (N) domain = biological target: T5, rCRKL-SH3 (N) domain (Homo sapiens, UniProt P46109); test: as above; conditions: peptide coated on microtiter plates
T5 construct: cDNAs corresponding to each of the SH domains were PCR-amplified and cloned into the Sac I and Xho I restriction sites; His-tag; made in house; host or cells: E. coli BL21
T5 sequence (P46109 123-183 limits assumed): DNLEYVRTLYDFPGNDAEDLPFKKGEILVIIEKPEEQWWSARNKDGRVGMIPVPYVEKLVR
Description: as §1

[4] = system: human prostate cancer xenografts (DU145-derived); test: Therapy in tumor-bearing mice (tumor volume); format: in vivo, nude mice; conditions: equimolar amounts, systemically administered, vs untreated or vehicle
Description: Finally, a pilot pre-clinical trial that included four cohorts of size-matched tumor-bearing mice was designed and conducted (FIG. 11). Animals received the following reagents: (i) the synthetic PSI domain-mimic peptide, (ii) the synthetic PSI domain-mimic peptide linked to a pro-apoptotic peptidomimetic (Arap et al., 2004; Ellerby et al., 1999; Kolonin et al., 2004; Zurita et al., 2004) in order to induce targeted apoptosis upon receptor-mediated internalization, (iii) the synthetic pro-apoptotic peptidomimetic alone, or (iv) vehicle alone. All peptides or peptidomimetics were administered at equimolar concentrations.
DU145 tumor-bearing mice were size-matched and divided into individual cohorts (n=4 mice per group). The tumor-homing peptide […] (SEQ ID NO:1) was synthesized fused with the proapoptotic motif D(KLAKLAK)2. Unconjugated peptide […] (SEQ ID NO:1) or D(KLAKLAK)2 served as controls. The synthetic peptides were systemically administered and tumor volumes measured as described (Arap et al., 1998; Arap et al., 2004).

CRKL [5] = biological target: T1, CRKL; test: Binding assays with recombinant gst-PSI fusion proteins
Description: FIG. 3A-D: Receptor binding by peptides. FIG. 3A, the recombinant His-tag CRKL (rCRKL), rCRKL-SH3 (N) domain, and rCRKL-SH3 (C) domain bind to the tumor-homing peptide-[…] (SEQ ID NO:1). FIG. 3B, the recombinant His-tag rCRKL, rCRKL-SH3 (N) domain, and rCRKL-SH3 (C) domain bind to the synthetic peptide NSTFLQEGMPTSA (SEQ ID NO:23) corresponding to a region in the PSI domain. FIG. 3C, recombinant gst fusion protein of the entire PSI domain (residues 22-82. SEQ ID NO: 71-[…]), gst-PSI linear (residues 48-62, SEQ ID NO: 72-TNSTFLQEGMPTSAR), gst-PSI cyclic (residues […], SEQ ID NO: 72-CTNSTFLQEGMPTSARC) were generated for binding assays. Both the linear and the cyclic PSI-derived regions bind to CRKL. FIG. 3D, the binding activity of the tumor-homing peptide to rCRKL-SH3 (C) domain is inhibited by the tumor-homing ([…]; SEQ ID NO:1) peptide, by the PSI-derived (NSTFLQEGMPTSA; SEQ ID NO:23) peptide or tumor-homing phage displaying SEQ ID NO:1. Bars represent mean±standard deviation from triplicate wells.
CRKL mutants in the SH3 domain (carboxyl terminal) were generated by PCR mutagenesis. Primer sets were designed to remove 60 bp (Δ1 and Δ2) and 54 bp (Δ3) and maintain the reading frame. For the PSI domain constructs, cyclic and linear peptide forms of the PSI domain were produced. […] Protein-protein interactions were detected by using an antibody against gst.

T1 sequence (P46109 whole entry): as the sequence (P46109 whole entry) above

## CNSTFLQEGMPTSAC [PSI-derived phage]
CRKL [1]
  phage binding to recombinant CRKL: bind

## YRCTLNSPFFWEDMTHECHA (listed as Homo sapiens) [Peptide 6]
DU145 cells
  internalization: mediates ligand-directed internalization
rCRKL-SH3 (C) domain [2]
  inhibition of binding of the tumor-homing peptide to rCRKL-SH3 (C) domain: inhibited
rCRKL-SH2 domain
  binding through the SH2 domain: little to no binding
rCRKL-SH3 (C) domain [3]
  binding attributes to the CRKL-SH3 (C) domain (site-directed mutagenesis): dependent on the Pro residue and on the cyclic Cys-Cys disulfide bridge
rCRKL-SH3 (C) domain [3]; peptide coated on microtiter plates
  binding to rCRKL-SH3 (C) domain: bind
rCRKL
  binding to rCRKL: bound
rCRKL-SH3 (N) domain
  binding to rCRKL-SH3 (N) domain: bind
[4]
  tumor growth / tumor volume: no differences in tumor volume
[4]; listed as PSI domain-mimic peptide
  tumor growth / tumor volume: no detectable effect

## CTNSTFLQEGMPTSARC [gst-PSI cyclic]
CRKL [5]
  binding to CRKL: bind

## TNSTFLQEGMPTSAR (left off: a dimerising Fc or GST; large carriers; small tags and cut ends) [gst-PSI linear, recombinant gst fusion of linear PSI region, residues 48-62]
CRKL [5]
  binding to CRKL: bind
